Data from the supplement of paper PMC6757056.
± gives the standard deviation of the averaged measurements.

B1: library; a variant is named by its letters at N, in order (parent)
chain: GCUGUCACCGAGAAACUGUGAAGUAUAUCUUAAACCUGGGCACUUAAAAGAUAUAUGGAGUUAGUAGUGCAACCUGCUCGGUCUGAUGAGUCCNNNNNNGGACGAAACAGC

Key:
[1] = variants of: B1; test: normalized RNA/DNA level without ligand (relative to sTRSVctl = 100) (log10 (% of sTRSVctl)); HEK293T; ligand: cyclic di-GMP (c-di-GMP-II aptamer); higher = less ribozyme self-cleavage, higher mRNA level; details: reporter: mCherry (pCS4076), ligand present: no
Outline: (§1)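 Ribozyme switch library plasmids with mCherry reporters (eGFP in certain ligand experiments) went into HEK293T cells at 4 µg per 6-well well. Where ligand was used, it was applied 1 h before transfection, and total RNA was extracted with EDTA 72 h later for reverse transcription, amplification, barcoding and sequencing. RNA level is the RNA-to-DNA read ratio normalized to a spiked-in non-cleaving sequence or to the leading sequences, then scaled and log-transformed. Scaling was ×100 with log10, the leading set comprised 25 sequences, and the cutoff was ≥100 DNA reads.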

[2] = variants of: B1; test: normalized RNA/DNA level with ligand (relative to sTRSVctl = 100) (log10 (% of sTRSVctl)); HEK293T; ligand: cyclic di-GMP (c-di-GMP-II aptamer); ligand concentration (+) RNA-Seq: 1 mM; higher = less ribozyme self-cleavage, higher mRNA level; details: reporter: mCherry (pCS4076), ligand present: yes
Outline: as §1

Row | Variant | normalized RNA/DNA level without ligand (log10) [1] | normalized RNA/DNA level with ligand (log10) [2]
1 | GCUGUCACCGAGAAACUGUGAAGUAUAUCUUAAACCUGGGCACUUAAAAGAUAUAUGGAGUUAGUAGUGCAACCUGCUCGGUCUGAUGAGUCCUUAUGCGGACGAAACAGC [UUAUGC] | 1.73 ± 0.012 | 1.81 ± 0.1
2 | GCUGUCACCGAGAAACUGUGAAGUAUAUCUUAAACCUGGGCACUUAAAAGAUAUAUGGAGUUAGUAGUGCAACCUGCUCGGUCUGAUGAGUCCCUAUGAGGACGAAACAGC [CUAUGA] | 1.6 ± 0.059 | 1.76 ± 0.058
3 | GCUGUCACCGAGAAACUGUGAAGUAUAUCUUAAACCUGGGCACUUAAAAGAUAUAUGGAGUUAGUAGUGCAACCUGCUCGGUCUGAUGAGUCCCUAUGCGGACGAAACAGC [CUAUGC] | 1.75 ± 0.042 | 1.86 ± 0.12
4 | GCUGUCACCGAGAAACUGUGAAGUAUAUCUUAAACCUGGGCACUUAAAAGAUAUAUGGAGUUAGUAGUGCAACCUGCUCGGUCUGAUGAGUCCUUAUACGGACGAAACAGC [UUAUAC] | 1.73 ± 0.018 | 1.86 ± 0.053
5 | GCUGUCACCGAGAAACUGUGAAGUAUAUCUUAAACCUGGGCACUUAAAAGAUAUAUGGAGUUAGUAGUGCAACCUGCUCGGUCUGAUGAGUCCUUAUAGGGACGAAACAGC [UUAUAG] | 1.71 ± 0.046 | 1.8 ± 0.11
6 | GCUGUCACCGAGAAACUGUGAAGUAUAUCUUAAACCUGGGCACUUAAAAGAUAUAUGGAGUUAGUAGUGCAACCUGCUCGGUCUGAUGAGUCCCUAUCGGGACGAAACAGC [CUAUCG] | 1.79 ± 0.047 | 1.88 ± 0.12
7 | GCUGUCACCGAGAAACUGUGAAGUAUAUCUUAAACCUGGGCACUUAAAAGAUAUAUGGAGUUAGUAGUGCAACCUGCUCGGUCUGAUGAGUCCCUAUCAGGACGAAACAGC [CUAUCA] | 1.538 ± 0.014 | 1.74 ± 0.038
8 | GCUGUCACCGAGAAACUGUGAAGUAUAUCUUAAACCUGGGCACUUAAAAGAUAUAUGGAGUUAGUAGUGCAACCUGCUCGGUCUGAUGAGUCCGUAUGCGGACGAAACAGC [GUAUGC] | 1.56 ± 0.065 | 1.75 ± 0.084
9 | GCUGUCACCGAGAAACUGUGAAGUAUAUCUUAAACCUGGGCACUUAAAAGAUAUAUGGAGUUAGUAGUGCAACCUGCUCGGUCUGAUGAGUCCUUAUCUGGACGAAACAGC [UUAUCU] | 1.704 ± 0.0044 | 1.85 ± 0.083
10 | GCUGUCACCGAGAAACUGUGAAGUAUAUCUUAAACCUGGGCACUUAAAAGAUAUAUGGAGUUAGUAGUGCAACCUGCUCGGUCUGAUGAGUCCUUAUCGGGACGAAACAGC [UUAUCG] | 1.783 ± 0.014 | 1.86 ± 0.14
11 | GCUGUCACCGAGAAACUGUGAAGUAUAUCUUAAACCUGGGCACUUAAAAGAUAUAUGGAGUUAGUAGUGCAACCUGCUCGGUCUGAUGAGUCCUUAUCAGGACGAAACAGC [UUAUCA] | 1.76 ± 0.11 | 1.91 ± 0.14
12 | GCUGUCACCGAGAAACUGUGAAGUAUAUCUUAAACCUGGGCACUUAAAAGAUAUAUGGAGUUAGUAGUGCAACCUGCUCGGUCUGAUGAGUCCAUAUAUGGACGAAACAGC [AUAUAU] | 1.678 ± 0.0055 | 1.83 ± 0.11
13 | GCUGUCACCGAGAAACUGUGAAGUAUAUCUUAAACCUGGGCACUUAAAAGAUAUAUGGAGUUAGUAGUGCAACCUGCUCGGUCUGAUGAGUCCCUAUAUGGACGAAACAGC [CUAUAU] | 1.64 ± 0.035 | 1.77 ± 0.13
14 | GCUGUCACCGAGAAACUGUGAAGUAUAUCUUAAACCUGGGCACUUAAAAGAUAUAUGGAGUUAGUAGUGCAACCUGCUCGGUCUGAUGAGUCCCUAUAGGGACGAAACAGC [CUAUAG] | 1.679 ± 0.012 | 1.84 ± 0.15
15 | GCUGUCACCGAGAAACUGUGAAGUAUAUCUUAAACCUGGGCACUUAAAAGAUAUAUGGAGUUAGUAGUGCAACCUGCUCGGUCUGAUGAGUCCCUAUACGGACGAAACAGC [CUAUAC] | 1.696 ± 0.016 | 1.83 ± 0.1
16 | GCUGUCACCGAGAAACUGUGAAGUAUAUCUUAAACCUGGGCACUUAAAAGAUAUAUGGAGUUAGUAGUGCAACCUGCUCGGUCUGAUGAGUCCAUAUGCGGACGAAACAGC [AUAUGC] | 1.67 ± 0.021 | 1.83 ± 0.13
17 | GCUGUCACCGAGAAACUGUGAAGUAUAUCUUAAACCUGGGCACUUAAAAGAUAUAUGGAGUUAGUAGUGCAACCUGCUCGGUCUGAUGAGUCCAUAUGGGGACGAAACAGC [AUAUGG] | 1.56 ± 0.033 | 1.75 ± 0.14
18 | GCUGUCACCGAGAAACUGUGAAGUAUAUCUUAAACCUGGGCACUUAAAAGAUAUAUGGAGUUAGUAGUGCAACCUGCUCGGUCUGAUGAGUCCAUAUGAGGACGAAACAGC [AUAUGA] | 1.43 ± 0.066 | 1.63 ± 0.071
19 | GCUGUCACCGAGAAACUGUGAAGUAUAUCUUAAACCUGGGCACUUAAAAGAUAUAUGGAGUUAGUAGUGCAACCUGCUCGGUCUGAUGAGUCCGUAUACGGACGAAACAGC [GUAUAC] | 1.661 ± 0.0097 | 1.81 ± 0.084
20 | GCUGUCACCGAGAAACUGUGAAGUAUAUCUUAAACCUGGGCACUUAAAAGAUAUAUGGAGUUAGUAGUGCAACCUGCUCGGUCUGAUGAGUCCGUAUAUGGACGAAACAGC [GUAUAU] | 1.6 ± 0.031 | 1.75 ± 0.11
21 | GCUGUCACCGAGAAACUGUGAAGUAUAUCUUAAACCUGGGCACUUAAAAGAUAUAUGGAGUUAGUAGUGCAACCUGCUCGGUCUGAUGAGUCCGUAUCUGGACGAAACAGC [GUAUCU] | 1.68 ± 0.038 | 1.82 ± 0.084
22 | GCUGUCACCGAGAAACUGUGAAGUAUAUCUUAAACCUGGGCACUUAAAAGAUAUAUGGAGUUAGUAGUGCAACCUGCUCGGUCUGAUGAGUCCGUAUCCGGACGAAACAGC [GUAUCC] | 1.73 ± 0.028 | 1.86 ± 0.13
23 | GCUGUCACCGAGAAACUGUGAAGUAUAUCUUAAACCUGGGCACUUAAAAGAUAUAUGGAGUUAGUAGUGCAACCUGCUCGGUCUGAUGAGUCCGUAUCGGGACGAAACAGC [GUAUCG] | 1.63 ± 0.043 | 1.81 ± 0.098
24 | GCUGUCACCGAGAAACUGUGAAGUAUAUCUUAAACCUGGGCACUUAAAAGAUAUAUGGAGUUAGUAGUGCAACCUGCUCGGUCUGAUGAGUCCAUAUCAGGACGAAACAGC [AUAUCA] | 1.63 ± 0.032 | 1.79 ± 0.12
25 | GCUGUCACCGAGAAACUGUGAAGUAUAUCUUAAACCUGGGCACUUAAAAGAUAUAUGGAGUUAGUAGUGCAACCUGCUCGGUCUGAUGAGUCCAUAUCGGGACGAAACAGC [AUAUCG] | 1.56 ± 0.022 | 1.75 ± 0.068
26 | GCUGUCACCGAGAAACUGUGAAGUAUAUCUUAAACCUGGGCACUUAAAAGAUAUAUGGAGUUAGUAGUGCAACCUGCUCGGUCUGAUGAGUCCAUAUCUGGACGAAACAGC [AUAUCU] | 1.73 ± 0.062 | 1.86 ± 0.13
